From patent publication US6680291
Substitutions are numbered along the chain they refer to. Blank lines part the entries; values can stand above or below the binder they belong to.

Legend:
[1] = biological target: T1, rat CNTF receptor on rat superior cervical ganglia (SCG) neurons (rat, UniProt Q08406 23-342); assay: competition with 125I-rat CNTF on rat SCG neurons
T1 construct: whole, on cells; The neurons carry the endogenous receptor, and the other receptor components may also be present; also called rat receptor
T1 sequence (looked up): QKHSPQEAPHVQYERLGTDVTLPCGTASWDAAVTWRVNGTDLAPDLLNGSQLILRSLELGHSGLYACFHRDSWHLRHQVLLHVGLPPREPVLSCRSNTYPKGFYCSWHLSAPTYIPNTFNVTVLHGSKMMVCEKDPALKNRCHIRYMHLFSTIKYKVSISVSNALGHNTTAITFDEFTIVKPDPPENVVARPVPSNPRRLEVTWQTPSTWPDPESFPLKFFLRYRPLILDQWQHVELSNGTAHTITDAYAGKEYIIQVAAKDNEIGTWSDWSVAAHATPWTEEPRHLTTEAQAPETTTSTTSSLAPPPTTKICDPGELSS
Description: Growth medium consisted of Ham's nutrient mixture F12 with 10% heat-inactivated fetal bovine serum (Hyclone), nerve growth factor (NGF) (100 ng/ml), penicillin (50 U/ml) and streptomycin (50 µg/ml). Cultures were maintained at 37° C. in a humidified 95% air/5% CO_2 atmosphere. Ganglion non-neuronal cells were eliminated by treatment with araC (10 µM) on days 1 and 3 of culture. Cultures were fed 3 times/week and were routinely used for binding assays within 2 weeks.
(§1) Binding was performed directly on cell monolayers. Cells in culture wells were washed once with assay buffer consisting of phosphate buffered saline (PBS; pH 7.4), 0.1 mM bacitracin, 1 mM PMSF, 1 µg/ml leupeptin, and 1 mg/ml BSA. […] Non-specific binding was determined in the presence of 1,000-fold excess of unlabelled CNTF. Specific binding towards MG87/CNTFR was 80–90%. Data were analyzed using the […] program (ISI, Philadelphia, Pa.).

[2] = biological target: T2, human CNTF receptor alpha-component on MG87/CNTFR fibroblasts (human, UniProt P26992 23-342); assay: competition with 125I-rat CNTF on MG87/CNTFR cells
T2 construct: whole, on cells; Mouse fibroblast cell line transfected with the human CNTF alpha receptor gene; also called CNTFRalpha; MG87/huCNTFR
T2 sequence (looked up): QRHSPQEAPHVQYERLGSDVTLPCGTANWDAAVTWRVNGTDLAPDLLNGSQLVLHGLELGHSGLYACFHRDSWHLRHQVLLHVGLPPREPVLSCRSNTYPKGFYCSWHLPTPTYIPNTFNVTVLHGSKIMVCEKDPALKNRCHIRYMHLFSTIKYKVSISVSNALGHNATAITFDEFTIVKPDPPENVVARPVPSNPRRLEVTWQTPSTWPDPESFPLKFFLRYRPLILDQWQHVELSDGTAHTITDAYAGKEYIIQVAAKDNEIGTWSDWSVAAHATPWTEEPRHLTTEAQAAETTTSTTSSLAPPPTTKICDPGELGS
Description: as §1

[3] = biological target: T2, human CNTF receptor alpha-component on …; assay: competition binding experiments, data not shown; cells not given

B2: RPN189 (ligand)
chain: MAFAEQTPLTLHRRDLCSRSIWLARKIRSDLTALMESYVKHQGLNKNINLDSVDGVPVASTDRWSEMTEAERLQENLQAYRTFQGMLTKLLEDQRVHFTPTEGDFHQAIHTLMLQVSAFAYQLEELMVLLEQKIPENEADGMPATVGDGGLFEKKLWGLKVLQELSQWTVRSIHDLRFISSHQTGIPARGSHYIANNKKM
notes: Chimeric CNTF
binding result [3]: binds

B3: RPN186 (ligand)
chain: MAFTEHSPLTPHRRDLCSRSIWLARKIRSDLTALTESYVKHQGLNKNINLDSVDGVPVASTDRWSEMTEAERLQENLQAYRTFQGMLTKLLEDQRVHFTPTEGDFHQAIHTLMLQVSAFAYQLEELMVLLEQKIPENEADGMPATVGDGGLFEKKLWGLKVLQELSQWTVRSIHDLRVISSHQMGISALESHYGAKDKQM
notes: Chimeric CNTF
binding result [3]: binds

B5: recombinant human CNTF (ligand)
chain: MAFTEHSPLTPHRRDLCSRSIWLARKIRSDLTALTESYVKHQGLNKNINLDSADGMPVASTDQWSELTEAERLQENLQAYRTFHVLLARLLEDQQVHFTPTEGDFHQAIHTLLLQVAAFAYQIEELMILLEYKIPRNEADGMPINVGDGGLFEKKLWGLKVLQELSQWTVRSIHDLRFISSHQTGIPARGSHYIANNKKM
notes: also called rHCNTF; hCNTF
IC50 [1]: 25 nM
fold less potent than unlabelled rat CNTF [1]: 90 fold
IC50 [2]: 30 nM
fold less potent than rat CNTF [2]: 12 fold

B6: RPN228 (ligand)
chain: B5 chain with Q63R
notes: Expressed in E. coli; also called RG228; rHCNTF,63QR
IC50 [2]: 5.6 nM

B10: RPN219 (ligand)
chain: B5 chain with A53V, M56V, Q63R, L67M
notes: Expressed in E. coli; also called CNTF RPN219
IC50 [1]: 0.3 nM

More lines, now with the values ahead:

IC50 [1]: 0.28 nM
IC50 [2]: 2.8 nM
B1: recombinant rat CNTF (ligand)
chain: B3 chain with T4A, H6Q, S7T, P11L, T35M
notes: also called unlabelled rat CNTF

binding result [3]: binds
B4: RPN192 (ligand)
chain: B2 chain with A4T, Q6H, T7S, L11P, M35T, V53A, V56M, R63Q, M67L
notes: Chimeric CNTF

binding result [3]: binds
B7: RPN222 (ligand)
chain: B5 chain with A53V, L67M
notes: Chimeric CNTF

binding result [3]: binds
B8: RPN218 (ligand)
chain: B5 chain with T35M, A53V, M56V, Q63R, L67M
notes: Chimeric CNTF

binding result [3]: binds
B9: RPN187 (ligand)
chain: B5 chain with T4A, H6Q, S7T, P11L, T35M
notes: Chimeric CNTF
